The numbers were not newly measured in paper PMC3909715, which cites them from elsewhere.

Like-named read-outs stand apart in the source and are kept apart here.

The target of series [1] is T1, Cys34 (UniProt position 58, QYLQQCPFEDH). Particulars: reduced thiol (HSA-SH); ligand state not stated.
For series [2], the target named is T1, Cys34. As to the kind of experiment: kinetics. The settings on record: reduced thiol.
The target in series [3] is T1, Cys34. As to the kind of experiment: chemical modification. The settings on record: reduced thiol; ligand state not stated.

Turning to “Human serum albumin (HSA) (Homo sapiens)”, the pKa in the series with Cys34 [1] is <7; with Cys34 [2] (ligand-free (fatty acid-free) HSA) it was 7.9±0.1; with Cys34 [2] (ligand state not stated), “about 8”; with Cys34 [3] it was “about 8”.

Usually pKa stands for the pH at which an ionisable group is half protonated.
